Assay results reported in patent publication US20250152742A1, “COMPOSITIONS AND METHODS FOR NEUROLOGICAL DISEASES” (Trames Bio, Inc., priority 2022, published 2025).
Where a chain is given by its changes, count along the chain named. Numbers in names are those of the source.

Test system: engineered chimeric receptor SEQ ID NO: 33 and its mutants (human α7-nAChR ligand binding domain / human GlyRα1 ion pore domain) in Lenti-X 293T cells
Assay: YFP fluorescence quenching anion reporter plate reader assay (percent quench, EC50)
Type: cell-based
Settings: for YFP fluorescence quenching using CNL001 (percent quench): receptor named in row; for YFP fluorescence quenching using Facinicline, 30 nM fac: ligand Facinicline 30 nM; for YFP fluorescence quenching using Facinicline, 300 nM fac: ligand Facinicline 300 nM; for YFP fluorescence quenching using Facinicline, 30 uM fac: ligand Facinicline 30 uM; for YFP fluorescence quenching using TC-6987, 1 uM tc6987: ligand TC-6987 1 uM; for YFP fluorescence quenching using TC-6987, 10 uM tc6987: ligand TC-6987 10 uM; for YFP fluorescence quenching using TC-6987, 500 uM tc6987: ligand TC-6987 500 uM; for YFP fluorescence quenching using Varenicline, 3 nM var: ligand Varenicline 3 nM; for YFP fluorescence quenching using Varenicline, 30 nM var: ligand Varenicline 30 nM; for YFP fluorescence quenching using Varenicline, 300 nM var: ligand Varenicline 300 nM; for YFP fluorescence quenching using Varenicline, 500 nM var: ligand Varenicline 500 nM; for YFP fluorescence quenching using Varenicline, 1 uM var: ligand Varenicline 1 uM
Text: To screen these mutant LGICs for those having novel response profiles to ligands, an anion reporter assay was developed to assess the function of the LGICs in a high throughput format. In this assay, cells expressing a YFP reporter whose fluorescence is quenched in the presence of anion are transfected with DNA encoding the channel of interest. Upon exposure to ligand, channels that are activated will flux anion, resulting in a dose-dependent quench of the YFP that can be detected on a plate reader. The greater the quench signal (i.e., the more positive the value), the higher the ligand activity on the receptor is.
Lenti-X 293T cells (LX293T, Clontech) were maintained in DMEM containing 10% FBS and 1% penicillin/streptomycin (Invitrogen). […] Two days before assay, cells were split at a density of 20,000 cells/well in a 96-well tissue culture plate coated with poly-d lysine (Thermo Scientific). The next day, the cells were transiently transfected with 0.1 μg of DNA per well using standard Fugene protocol (Promega). On the day of assay, cells were washed 2 times in 1X extracellular solution (1X ECS: 140 mM NaCl, 5 mM KCl, 1 mM MgCl2, 2 mM CaCl2, 10 mM HEPES, 10 mM glucose, pH 7.2, mOsms 300). After the last wash, 100 μL of 1X ECS was added to the wells and the plate was incubated at 37° C. for 30 min. While incubating the plate, the drugs were diluted to a 2X concentration in 1X ECS-Nal (same components as 1X ECS except the 140 mM NaCl was replaced by 140 mM Nal). The plates were then read on a Flexstation3 (Molecular Devices). Each well, 8 wells at a time, of the plate is read for 2 min using a Flexstation3 (Molecular Devices) as follows: 1) a baseline YFP fluorescence is read for 17 sec, 2) 100 μL of ligand is added, and 3) the changes in YFP fluorescence are then measured every 1.3 sec for 1 minute and 43 seconds. The percent quench is calculated from the average fluorescence of the last 10 seconds of the read divided by the baseline average of the first 15 seconds prior to the ligand addition.
FIGS. 1A-1J provide heat maps of the percent quench of YFP fluorescence following stimulation by various doses of either acetylcholine or the non-native ligand as indicated in the Figures. CODA71 (SEQ ID NO: 33) was used as a control, and CODA75 (SEQ ID NO: 29, a non-responding chimeric engineered receptor) was used as the negative control. Quenching of the fluorescence signal, as indicated by blue shaded cells, indicate the level of engineered receptor activation by the non-native ligand at that concentration.

[1] = 1 nM CNL001, first column so headed
[2] = 1 nM CNL001, second column so headed
[3] = 3 nM brd (TC-5619/Bradanicline)
[4] = 10 nM CNL001, first column so headed
[5] = 10 nM CNL001, second column so headed
[6] = 30 nM brd (TC-5619/Bradanicline)
[7] = 50 nM CNL001, first column so headed
[8] = 50 nM CNL001, second column so headed
[9] = 100 nM CNL001, first column so headed
[10] = 100 nM CNL001, second column so headed
[11] = 300 nM brd (TC-5619/Bradanicline)
[12] = 1 uM CNL001, first column so headed
[13] = 1 uM CNL001, second column so headed

B1: CODA237: engineered receptor: R101M in SEQ ID NO: 33 (protein)
chain: MRCSPGGVWLALAASLLHVSLQGEFQRKLYKELVKNYNPLERPVANDSQPLTVYFSLSLLQIMDVDEKNQVLTTNIWLQMSWTDHYLQWNVSEYPGVKTVMFPDGQIWKPDILLYNSADERFDATFHTNVLVNSSGHCQYLPPGIFKSSCPMDLKNFPMDVQTCKLKFGSWSYGGWSLDLQMQEADISGYIPNGEWDLVGIPGKRSERFYECCKEPYPDVTFTVTMRRRMGYYLIQMYIPSLLIVILSWISFWINMDAAPARVGLGITTVLTMTTQSSGSRASLPKVSYVKAIDIWMAVCLLFVFSALLEYAAVNFVSRQHKELLRFRRKRRHHKSPMLNLFQEDEAGEGRFNFSAYGMGPACLQAKDGISVKGANNSNTTNPPPAPSKSPEEMRKLFIQRAKKIDKISRIGFPMAFLIFNMFYWIIYKIVRREDVHNQ
modifications: synthetic sequence of chimeric LGIC
YFP fluorescence quenching using CNL001 (percent quench) [1]: −2.114% | YFP fluorescence quenching using CNL001 (percent quench) [2]: −5.079% | YFP fluorescence quenching using TC-5619/Bradanicline (percent quench) [3]: −14.87% | YFP fluorescence quenching using CNL001 (percent quench) [4]: 15.096% | YFP fluorescence quenching using CNL001 (percent quench) [5]: 50.554% | YFP fluorescence quenching using TC-5619/Bradanicline (percent quench) [6]: 69.93% | YFP fluorescence quenching using CNL001 (percent quench) [7]: 66.585% | YFP fluorescence quenching using CNL001 (percent quench) [8]: 74.462% | YFP fluorescence quenching using ABT-126 (percent quench) (50 nM abt (ABT-126)): −24.34% | YFP fluorescence quenching using CNL001 (percent quench) [9]: 78% | YFP fluorescence quenching using CNL001 (percent quench) [10]: 77.411% | YFP fluorescence quenching (percent quench) (100 nM CNL002): −8.68% | YFP fluorescence quenching using ABT-126 (percent quench) (100 nM abt (ABT-126)): −20.22% | YFP fluorescence quenching using AZD-0328 (percent quench) (100 nM azd0328): −17.84% | YFP fluorescence quenching using ABT-126 (percent quench) (300 nM abt (ABT-126)): −20.57% | YFP fluorescence quenching using AZD-0328 (percent quench) (300 nM azd0328): −11.98% | YFP fluorescence quenching using TC-5619/Bradanicline (percent quench) [11]: 76.57% | YFP fluorescence quenching using CNL001 (percent quench) [12]: 79.06% | YFP fluorescence quenching using CNL001 (percent quench) [13]: 79.162% | YFP fluorescence quenching (percent quench) (1 uM CNL002): −2.24% | YFP fluorescence quenching using ABT-126 (percent quench) (1 uM abt (ABT-126)): −19.55% | YFP fluorescence quenching (percent quench) (10 uM ach (acetylcholine)): −16.79% | YFP fluorescence quenching (percent quench) (30 uM CNL002): 66.99% | YFP fluorescence quenching using AZD-0328 (percent quench) (30 uM azd0328): 81.2% | YFP fluorescence quenching (percent quench) (100 uM ach (acetylcholine)): −18.63% | YFP fluorescence quenching (percent quench) (1 mM ach (acetylcholine)): 46.28% | YFP fluorescence quenching (percent quench) (3 mM ach (acetylcholine)): 69.31% | YFP fluorescence quenching using Facinicline, 30 nM fac: −24.14 | YFP fluorescence quenching using Facinicline, 300 nM fac: −14.38 | YFP fluorescence quenching using Facinicline, 30 uM fac: 88.78 | YFP fluorescence quenching using TC-6987, 1 uM tc6987: −21.62 | YFP fluorescence quenching using TC-6987, 10 uM tc6987: 21.52 | YFP fluorescence quenching using TC-6987, 500 uM tc6987: 60.33 | YFP fluorescence quenching using Varenicline, 3 nM var (first column): 18.429 | YFP fluorescence quenching using Varenicline, 3 nM var (second column): 16.83 | YFP fluorescence quenching using Varenicline, 30 nM var (first column): 23.07 | YFP fluorescence quenching using Varenicline, 30 nM var (second column): 15.868 | YFP fluorescence quenching using Varenicline, 300 nM var (first column): 18.819 | YFP fluorescence quenching using Varenicline, 300 nM var (second column): 19.155 | YFP fluorescence quenching using Varenicline, 500 nM var (first column): 19.117 | YFP fluorescence quenching using Varenicline, 500 nM var (second column): 22.593 | YFP fluorescence quenching using Varenicline, 1 uM var (first column): 24.525 | YFP fluorescence quenching using Varenicline, 1 uM var (second column): 23.383

B2: CODA238: engineered receptor: R101W in SEQ ID NO: 33 (protein)
chain: B1 chain with M101W
modifications: synthetic sequence of chimeric LGIC
YFP fluorescence quenching using CNL001 (percent quench) [1]: 32.42% | YFP fluorescence quenching using CNL001 (percent quench) [2]: 54.768% | YFP fluorescence quenching using TC-5619/Bradanicline (percent quench) [3]: 74.7% | YFP fluorescence quenching using CNL001 (percent quench) [4]: 75.149% | YFP fluorescence quenching using CNL001 (percent quench) [5]: 75.339% | YFP fluorescence quenching using TC-5619/Bradanicline (percent quench) [6]: 76.78% | YFP fluorescence quenching using CNL001 (percent quench) [7]: 75.881% | YFP fluorescence quenching using CNL001 (percent quench) [8]: 77.844% | YFP fluorescence quenching using ABT-126 (percent quench) (50 nM abt (ABT-126)): −14.97% | YFP fluorescence quenching using CNL001 (percent quench) [9]: 78% | YFP fluorescence quenching using CNL001 (percent quench) [10]: 78.575% | YFP fluorescence quenching (percent quench) (100 nM CNL002): 2.95% | YFP fluorescence quenching using ABT-126 (percent quench) (100 nM abt (ABT-126)): −14.66% | YFP fluorescence quenching using AZD-0328 (percent quench) (100 nM azd0328): 22.94% | YFP fluorescence quenching using ABT-126 (percent quench) (300 nM abt (ABT-126)): −16.35% | YFP fluorescence quenching using AZD-0328 (percent quench) (300 nM azd0328): 75.38% | YFP fluorescence quenching using TC-5619/Bradanicline (percent quench) [11]: 77.01% | YFP fluorescence quenching using CNL001 (percent quench) [12]: 81.126% | YFP fluorescence quenching using CNL001 (percent quench) [13]: 79.482% | YFP fluorescence quenching (percent quench) (1 uM CNL002): 67.93% | YFP fluorescence quenching using ABT-126 (percent quench) (1 uM abt (ABT-126)): 50.02% | YFP fluorescence quenching (percent quench) (10 uM ach (acetylcholine)): −16.58% | YFP fluorescence quenching (percent quench) (30 uM CNL002): 73.02% | YFP fluorescence quenching using AZD-0328 (percent quench) (30 uM azd0328): 81.8% | YFP fluorescence quenching (percent quench) (100 uM ach (acetylcholine)): 75.18% | YFP fluorescence quenching (percent quench) (1 mM ach (acetylcholine)): 78.99% | YFP fluorescence quenching (percent quench) (3 mM ach (acetylcholine)): 75.74% | YFP fluorescence quenching using Facinicline, 30 nM fac: −19.61 | YFP fluorescence quenching using Facinicline, 300 nM fac: 76.54 | YFP fluorescence quenching using Facinicline, 30 uM fac: 87.94 | YFP fluorescence quenching using TC-6987, 1 uM tc6987: 72.47 | YFP fluorescence quenching using TC-6987, 10 uM tc6987: 72.04 | YFP fluorescence quenching using TC-6987, 500 uM tc6987: 76.56 | YFP fluorescence quenching using Varenicline, 3 nM var (first column): 17.896 | YFP fluorescence quenching using Varenicline, 3 nM var (second column): 12.564 | YFP fluorescence quenching using Varenicline, 30 nM var (first column): 16.263 | YFP fluorescence quenching using Varenicline, 30 nM var (second column): 22.117 | YFP fluorescence quenching using Varenicline, 300 nM var (first column): 77.492 | YFP fluorescence quenching using Varenicline, 300 nM var (second column): 79.056 | YFP fluorescence quenching using Varenicline, 500 nM var (first column): 80.186 | YFP fluorescence quenching using Varenicline, 500 nM var (second column): 80.065 | YFP fluorescence quenching using Varenicline, 1 uM var (first column): 81.263 | YFP fluorescence quenching using Varenicline, 1 uM var (second column): 80.702
